From publication PMC7055914

Biological target: S. Typhi PltB (pertussis-like toxin B subunit) homopentamer (Salmonella enterica serovar Typhi) (UniProt Q8Z6A3)
Assay: […], sodium acetate pH 4.4) […]

Substance: S. Typhi PltB (pertussis-like toxin B subunit) homopentamer (from UniProt Q8Z6A3) (natural protein)
- stoichiometry N: 5
